Patent US20190062427A1

Columns and labels:
[1] = target: Siglec-9-Fc (R&D Systems, catalog number 1139-SL-050) (human) (UniProt Q9Y336); assay: FACS ligand competition: 25 ug/ml mAb pre-coupled with 25 ug/ml Siglec-9-Fc, binding to sialic acid ligands on U937 cells, anti-human IgG-PE
[2] = target: human Siglec-9 expressed on human cells (human) (UniProt Q9Y336); assay: flow cytometry on human primary dendritic cells, 10 ug/ml mAb, PE secondary
[3] = target: human Siglec-9 expressed on human cells (human) (UniProt Q9Y336); assay: flow cytometry on human primary macrophages, 10 ug/ml mAb, PE secondary
[4] = target: human Siglec-9 expressed on human cells (human) (UniProt Q9Y336); assay: flow cytometry on human primary monocytes, 10 ug/ml mAb, PE secondary
[5] = target: human Siglec-9 expressed on human cells (human) (UniProt Q9Y336); assay: cell-based or functional assay
[6] = target: Histidine-tagged human Siglec-9 (NovoProtein) (human) (UniProt Q9Y336); assay: SPR Biacore T200, 25 C, 25 nM mAb captured on anti-mouse IgG CM5 chip, His-tagged Siglec-9 200 nM as analyte, single-concentration 1:1 fit
Histidine-tagged human Siglec-9 (NovoProtein) (human), sequence (Q9Y336 18-348 limits assumed): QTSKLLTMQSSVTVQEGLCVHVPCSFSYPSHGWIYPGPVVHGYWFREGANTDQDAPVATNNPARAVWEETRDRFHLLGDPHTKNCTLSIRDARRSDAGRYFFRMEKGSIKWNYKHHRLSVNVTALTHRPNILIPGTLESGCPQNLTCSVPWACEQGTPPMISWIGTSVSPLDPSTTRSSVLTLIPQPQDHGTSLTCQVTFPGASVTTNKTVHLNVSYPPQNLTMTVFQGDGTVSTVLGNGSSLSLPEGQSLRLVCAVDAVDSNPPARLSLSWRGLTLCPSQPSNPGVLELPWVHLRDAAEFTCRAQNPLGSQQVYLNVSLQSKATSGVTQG

human Siglec-9 expressed on human cells (human), sequence (Q9Y336 18-463): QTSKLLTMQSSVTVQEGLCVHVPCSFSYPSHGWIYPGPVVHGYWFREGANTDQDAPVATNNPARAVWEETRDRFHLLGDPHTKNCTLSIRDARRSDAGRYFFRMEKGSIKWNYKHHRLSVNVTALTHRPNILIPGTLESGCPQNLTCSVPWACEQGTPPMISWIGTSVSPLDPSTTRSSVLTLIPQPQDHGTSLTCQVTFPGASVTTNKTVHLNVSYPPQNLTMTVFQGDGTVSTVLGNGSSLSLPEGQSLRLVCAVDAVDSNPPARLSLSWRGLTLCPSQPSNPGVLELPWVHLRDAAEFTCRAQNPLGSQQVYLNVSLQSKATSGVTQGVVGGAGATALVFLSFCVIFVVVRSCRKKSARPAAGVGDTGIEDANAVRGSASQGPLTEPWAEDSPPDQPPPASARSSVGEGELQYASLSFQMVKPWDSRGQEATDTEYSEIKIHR
Siglec-9-Fc (R&D Systems, catalog number 1139-SL-050) (human), sequence (Q9Y336 18-348 limits assumed): as the sequence (Q9Y336 18-348 limits assumed) above

Percent Siglec-9-Fc Binding [1]: 97.8%
% Positive [2]: 27.6%
MFI [2]: 197
% Positive [3]: 93.5%
MFI [3]: 473
% Positive [4]: 29.6%
MFI [4]: 198
Percent Siglec-9 Surface Expression, DCs (% Siglec-9) [5]: 60.2%
Percent Siglec-9 Surface Expression, Macrophages (% Siglec-9) [5]: 21.3%
Percent Siglec-9 Surface Expression, Microglia (% Siglec-9) [5]: 45.4%
Percent Siglec-9 Surface Expression, Monocytes (% Siglec-9) [5]: 42.2%
Percent Siglec-9 Surface Expression, THP-1 cells (% Siglec-9) [5]: 62.6%
Kd [6]: 6.7 nM
B1: anti-Siglec-9 antibody 6D8 (antibody, IgG2b, V domains shown, part only)
VH: VQLQQSGAELVKPGASVKLSCKASGYTFTSYWMHWVKQRPGQGLEWIGEIDPSDSYTYYNQKFKGKATLTVDKSSSTAYMQLSSLTSEDSAVYYCAAYYSNYVRAYWGQGTLVTVSA
VL: DIQKPQSPFYMCVSGGETISISSHTTRGIYWYKGGSAEKPEKPFKLEIYCARNGEGGAPSRFSGRGSGTDFSLTINRGESEDCAEYYCAQFYQFPWTFGGGTKLEIK
